The target in assay [1] is RSV IN (1-278 aa) (Rous sarcoma virus (Prague A)).
Assay [2] shares this target. Put plainly: SEC. In general terms: SEC sorts molecules by how far they enter the pores of the column.
The target of assay [3] is RSV IN (1-269) (Rous sarcoma virus (Prague A)). The assay can be described thus: SEC.

Among the data in paper doi:10.1101/2025.09.09.675266 are stoichiometry N values, retold here.

By stoichiometry N is commonly meant a count of units in the complex or per binding partner.

“And” between values parts separate entries of the source, which are not always exact repeats. Equal values may be shown once. Read-outs that look alike come from different tables or passages of the source.

In the case of RSV IN (1-278 aa) (domain or fragment), the stoichiometry N is 2 in assay [1]; 4 and 8 in assay [2].

RSV IN (1-269) (domain or fragment): the stoichiometry N in assay [3] is 4.
